From article PMC5615231

Molecular target: recombinant Aβ42 peptide (UniProt P05067)

Chain of extracellular chaperone clusterin (P10909 23-227): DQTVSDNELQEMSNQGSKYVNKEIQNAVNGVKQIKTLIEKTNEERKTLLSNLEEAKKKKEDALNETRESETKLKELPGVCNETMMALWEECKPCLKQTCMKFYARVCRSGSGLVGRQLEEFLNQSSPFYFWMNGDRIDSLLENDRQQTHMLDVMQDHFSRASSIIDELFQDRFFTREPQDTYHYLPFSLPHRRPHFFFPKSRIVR
Chain of extracellular chaperone clusterin (P10909 228-449): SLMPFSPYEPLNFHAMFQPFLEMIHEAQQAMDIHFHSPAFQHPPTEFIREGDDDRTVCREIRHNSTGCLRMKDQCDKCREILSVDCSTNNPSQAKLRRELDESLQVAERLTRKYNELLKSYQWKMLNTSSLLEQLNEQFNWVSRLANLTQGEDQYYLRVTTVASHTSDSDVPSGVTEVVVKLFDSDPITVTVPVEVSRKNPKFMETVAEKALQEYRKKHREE

extracellular chaperone clusterin (from UniProt P10909 23-227; P10909 228-449) (natural protein)
concentration of clusterin required to reduce by half the Ca^2+ influx into lipid vesicles induced by Aβ42 oligomers (t2 aliquot; dilution series): 0.1 nM
